The nature of this series: self-splicing fitness, log relative to wild type (ln ratio); higher = more splicing; Tetrahymena group I intron in knt gene, E. coli kanamycin selection, DiMSum; sequences stand for … in CUCUCU…GGAGGGAAAAGUUAUCAGGCAUGCACCUGGUAGCUAGUCUUUAAACCAAUAGAUUGCAUCGGUUUAAAAGGCAAGACCGUCAAAUUGCGGGAAAGGGGUCAACAGCCGUUCAGUACCAAGUCUCAGGGGAAACUUUGAGAUGGCCUUGCAAAGGGUAUGGUAAUAAGCUGACGGACAUGGUCCUAACCACGCAGCCAAGUCCUAAGUCAACAGAUCUUCUGUUGAUAUGGAUGCAGUUCACAGACUAAAUGUCGGUCGGGGAAGAUGUAUUCUUCUCAUAAGAUAUAGUCGGACCUCUCCUUAAUGGGAGCUAGCGGAUGAAGUGAUGCAACACUGGAGCCGCUGGGAACUAAUUUGUAUGCGAAAGUAUAUUGAUUAGUUUUGGAGUACUCGUGGUCG
A digest of the protocol: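 Six replicate transformations of E. coli BL21(DE3) with a pET-22b(+) library were grown overnight at 37°C or 30°C. The library randomised all eight P1ex-region intron nucleotides, the intron lying in the knt kanamycin-resistance gene, and plates were LB agar with or without 25 μg/mL kanamycin plus 100 μg/mL carbenicillin, 50 μM IPTG and 0.2% rhamnose. Pooled colonies were amplicon-sequenced on an Illumina HiSeq 2500, and fitness is the DiMSum error-weighted combination of wild-type-normalised replicate fold changes, kanamycin versus none.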

Consider 40 sequences from the supplement of paper PMC7877785.

± gives the uncertainty stated by the source.

As to GAGUAGCAAUAUUACGCCUA, the “self-splicing fitness (ln)” value was -1.21 ± 0.1 (30 °C) and -0.374 ± 0.11 (37 °C). On to CAUGAGCAAUAUUACGUCGG, for which the “self-splicing fitness (ln)” value is -2.94 ± 0.18 (30 °C) and -1.57 ± 0.21 (37 °C). On to GGCUAGCAAUAUUACGAUGG, for which the “self-splicing fitness (ln)” value (37 °C) was -2.46 ± 0.23.

Take AGCCAGCAAUAUUACGUGGG: the “self-splicing fitness (ln)” value runs as follows: (30 °C) -3.16 ± 0.13; (37 °C) -1.3 ± 0.11. As to UCUUAGCAAUAUUACGCGAC, under “37 °C”, the “self-splicing fitness (ln)” value is -3.07 ± 0.32. With UGAUAGCAAUAUUACGGUGA, the “self-splicing fitness (ln)” value by setting is: (30 °C) -1.46 ± 0.16; (37 °C) -0.637 ± 0.19. Consider GUCAAGCAAUAUUACGCCAG, for which the “self-splicing fitness (ln)” value runs as follows: (30 °C) -4.54 ± 0.28; (37 °C) -3.95 ± 0.33. CCCCAGCAAUAUUACGACGU: the “self-splicing fitness (ln)” value reads like this: (30 °C) -3.45 ± 0.21; (37 °C) -2.9 ± 0.19. For AGGAAGCAAUAUUACGUUCC, the “self-splicing fitness (ln)” value is -2.96 ± 0.39 (30 °C) and -2.59 ± 0.48 (37 °C). As for ACGUAGCAAUAUUACGUCCG, the “self-splicing fitness (ln)” value (30 °C) is -1.63 ± 0.12 and the “self-splicing fitness (ln)” value (37 °C) was -0.705 ± 0.11. Consider CAGAAGCAAUAUUACGAGUA, for which the “self-splicing fitness (ln)” value is, setting by setting: (30 °C) -3.2 ± 0.29; (37 °C) -1.66 ± 0.22. For GAAAAGCAAUAUUACGUGCU, the “self-splicing fitness (ln)” value is, setting by setting: (30 °C) -1.8 ± 0.098; (37 °C) -0.978 ± 0.1. On to UGGCAGCAAUAUUACGCACA, for which the “self-splicing fitness (ln)” value is, setting by setting: (30 °C) -1.24 ± 0.11; (37 °C) -0.127 ± 0.12. Consider GUUAAGCAAUAUUACGCAAC, for which the “self-splicing fitness (ln)” value (37 °C) is -0.0162 ± 0.34. Turning to GUAAAGCAAUAUUACGUUAG, the “self-splicing fitness (ln)” value by setting is: (30 °C) -1.01 ± 0.057; (37 °C) -0.896 ± 0.076. The matching figures for UGCGAGCAAUAUUACGAUAC: -2.68 ± 0.28 and -1.45 ± 0.32. For AAUCAGCAAUAUUACGGGUA, the “self-splicing fitness (ln)” value runs as follows: (30 °C) -0.368 ± 0.071; (37 °C) 0.17 ± 0.081.

With CCGAAGCAAUAUUACGUUGU, the “self-splicing fitness (ln)” value was -4.15 ± 0.32 (30 °C) and -3.37 ± 0.24 (37 °C).

Regarding UAGAAGCAAUAUUACGGUGC, the “self-splicing fitness (ln)” value (37 °C) is -1.46 ± 0.48. Turning to GGGCAGCAAUAUUACGGAGG, the “self-splicing fitness (ln)” value runs as follows: (30 °C) -4.42 ± 0.26; (37 °C) -3.03 ± 0.23.

Take GAGGAGCAAUAUUACGAACA: the “self-splicing fitness (ln)” value is, setting by setting: (30 °C) -2.69 ± 0.23; (37 °C) -2.07 ± 0.16.

As to GACUAGCAAUAUUACGUCCU, the “self-splicing fitness (ln)” value by setting is: (30 °C) -1.15 ± 0.2; (37 °C) 0.446 ± 0.17. With GUCUAGCAAUAUUACGUACA, the “self-splicing fitness (ln)” value is -0.922 ± 0.1 (30 °C) and -0.376 ± 0.1 (37 °C). With CUGGAGCAAUAUUACGUGAA, the “self-splicing fitness (ln)” value (30 °C) is -3.42 ± 0.22 and the “self-splicing fitness (ln)” value (37 °C) was -2.01 ± 0.16. The matching figures for CAAAAGCAAUAUUACGCGCC: -2.04 ± 0.17 and -0.789 ± 0.19.

Regarding CGCGAGCAAUAUUACGUGGC, the “self-splicing fitness (ln)” value (30 °C) was -2.53 ± 0.18 and the “self-splicing fitness (ln)” value (37 °C) was -2.16 ± 0.18.

Regarding UGUGAGCAAUAUUACGAUUU, the “self-splicing fitness (ln)” value (37 °C) is -2.06 ± 0.27. CUAAAGCAAUAUUACGCCAU: the “self-splicing fitness (ln)” value was -3.34 ± 0.33 (30 °C) and -1.36 ± 0.27 (37 °C).

Take AUUAAGCAAUAUUACGUCUC: the “self-splicing fitness (ln)” value by setting is: (30 °C) -2.06 ± 0.12; (37 °C) -1.4 ± 0.19. GUAAAGCAAUAUUACGGCAG: the “self-splicing fitness (ln)” value is, setting by setting: (30 °C) -1.5 ± 0.15; (37 °C) -2.25 ± 0.3. Turning to AAUCAGCAAUAUUACGCUCC, the “self-splicing fitness (ln)” value by setting is: (30 °C) -1.54 ± 0.14; (37 °C) -0.129 ± 0.11.

For UCGUAGCAAUAUUACGGAUU, the “self-splicing fitness (ln)” value is -2.08 ± 0.14 (30 °C) and -2.85 ± 0.23 (37 °C). As to AGUCAGCAAUAUUACGCGAA, the “self-splicing fitness (ln)” value was -1.21 ± 0.17 (30 °C) and -0.704 ± 0.15 (37 °C). Take ACCGAGCAAUAUUACGCGAU: the “self-splicing fitness (ln)” value (30 °C) is -2.5 ± 0.14 and the “self-splicing fitness (ln)” value (37 °C) is -1.73 ± 0.14. The matching figures for CCGUAGCAAUAUUACGCUAA: -3.32 ± 0.35 and -1.35 ± 0.36.

Take AGGCAGCAAUAUUACGUAGA: the “self-splicing fitness (ln)” value is, setting by setting: (30 °C) -2.33 ± 0.15; (37 °C) -0.171 ± 0.11. As for GUGAAGCAAUAUUACGCCCC, the “self-splicing fitness (ln)” value (30 °C) is -0.362 ± 0.33. For UUACAGCAAUAUUACGCGUA, the “self-splicing fitness (ln)” value (30 °C) was -3.07 ± 0.2 and the “self-splicing fitness (ln)” value (37 °C) is -1.94 ± 0.16. As for UAGUAGCAAUAUUACGGGAG, the “self-splicing fitness (ln)” value (30 °C) was -3.69 ± 0.4 and the “self-splicing fitness (ln)” value (37 °C) is -2.3 ± 0.45. For UUGUAGCAAUAUUACGGGAG, the “self-splicing fitness (ln)” value (37 °C) is -2.84 ± 0.4.
